# Patent publication US20240400708A1
# Residue numbers refer to the chain shown, from its start. Numbers in names are those of the source.
# B1: feline IgG1a S254H (antibody, part only; not given: Variable domains, not shown: another chain or arm of the molecule)
# constant: ASTTAPSVFPLAPSCGTTSGATVALACLVLGYFPEPVTVSWNSGALTSGVHTFPAVLQASGLYSLSSMVTVPSSRWLSDTFTCNVAHPPSNTKVDKTVRKTDHPPGPKPCDCPKCPPPEMLGGPSIFIFPPKPKDTLSIHRTPEVTCLVVDLGPDDSDVQITWFVDNTQVYTAKTSPREEQFNSTYRVVSVLPILHQDWLKGKEFKCKVNSKSLPSPIERTISKAKGQPHEPQVYVLPPAQEELSRNKVSVTCLIKSFHPPDIAVEWEITGQPEPENNYRTTPPQLDSDGTYFVYSKLSVDRSHWQRGNTYTCSVSHEALHSHHTQKSLTQSPGK
# B2: feline IgG1a S428K (antibody, part only; not given: Variable domains, not shown: another chain or arm of the molecule)
# constant: B1 constant with H140S, S316K
# B3: feline IgG1a T256E (antibody, part only; not given: variable domains and light chain, not shown: another chain or arm of the molecule)
# constant: B1 constant with H140S, T142E
# B4: feline IgG1a S428T (antibody, part only; not given: Variable domains, not shown: another chain or arm of the molecule; small tags and cut ends)
# constant: B1 constant with H140S, S316T
# B5: feline IgG1a T256I (antibody, part only; not given: Variable domains, not shown: another chain or arm of the molecule)
# constant: B1 constant with H140S, T142I
# B6: feline IgG1a T256C (antibody, part only; not given: Variable domains, not shown: another chain or arm of the molecule)
# constant: B1 constant with H140S, T142C
# B7: feline IgG1a S252W (antibody, part only; not given: Variable domains, not shown: another chain or arm of the molecule)
# constant: B1 constant with S138W, H140S
# B8: feline IgG1a S428E (antibody, part only; not given: Variable domains, not shown: another chain or arm of the molecule)
# constant: B1 constant with H140S, S316E
# B9: feline IgG1a S254Y (antibody, part only; not given: Variable domains, not shown: another chain or arm of the molecule)
# constant: B1 constant with H140Y
# B10: feline IgG1a T256D (antibody, part only; not given: Variable domains, not shown: another chain or arm of the molecule)
# constant: B1 constant with H140S, T142D
# B11: feline IgG1a T256H (antibody, part only; not given: Variable domains, not shown: another chain or arm of the molecule)
# constant: B1 constant with H140S, T142H
# B12: feline IgG1a S254N (antibody, part only; not given: Variable domains, not shown: another chain or arm of the molecule)
# constant: B1 constant with H140N
# B13: feline IgG1a S434L (antibody, part only; not given: Variable domains, not shown: another chain or arm of the molecule)
# constant: B1 constant with H140S, S322L
# B14: feline IgG1a S254L (antibody, part only; not given: variable domains and light chain, not shown: another chain or arm of the molecule)
# constant: B1 constant with H140L
# B15: feline IgG1a S254M (antibody, part only; not given: Variable domains, not shown: another chain or arm of the molecule)
# constant: B1 constant with H140M
# B16: feline IgG1a S428M (antibody, part only; not given: Variable domains, not shown: another chain or arm of the molecule)
# constant: B1 constant with H140S, S316M
# B17: feline IgG1a S254Q (antibody, part only; not given: Variable domains, not shown: another chain or arm of the molecule)
# constant: B1 constant with H140Q
# B18: feline IgG1a S428I (antibody, part only; not given: Variable domains, not shown: another chain or arm of the molecule)
# constant: B1 constant with H140S, S316I
# B19: feline IgG1a S428N (antibody, part only; not given: Variable domains, not shown: another chain or arm of the molecule; small tags and cut ends)
# constant: B1 constant with H140S, S316N
# B20: feline IgG1a S434P (antibody, part only; not given: Variable domains, not shown: another chain or arm of the molecule)
# constant: B1 constant with H140S, S322P
# B21: feline IgG1a S428D (antibody, part only; not given: Variable domains, not shown: another chain or arm of the molecule)
# constant: B1 constant with H140S, S316D
# B22: feline IgG1a S254T (antibody, part only; not given: Variable domains, not shown: another chain or arm of the molecule)
# constant: B1 constant with H140T
# B23: feline IgG1a S428A (antibody, part only; not given: Variable domains, not shown: another chain or arm of the molecule)
# constant: B1 constant with H140S, S316A
# B24: feline IgG1a T256G (antibody, part only; not given: variable domains and light chain, not shown: another chain or arm of the molecule)
# constant: B1 constant with H140S, T142G
# B25: feline IgG1a S252M (antibody, part only; not given: Variable domains, not shown: another chain or arm of the molecule)
# constant: B1 constant with S138M, H140S
# B26: feline IgG1a S434K (antibody, part only; not given: variable domains and light chain, not shown: another chain or arm of the molecule)
# constant: B1 constant with H140S, S322K
# B27: feline IgG1a S428F (antibody, part only; not given: Variable domains, not shown: another chain or arm of the molecule)
# constant: B1 constant with H140S, S316F
# B28: feline IgG1a S254W (antibody, part only; not given: Variable domains, not shown: another chain or arm of the molecule)
# constant: B1 constant with H140W
# B29: feline IgG1a T256K (antibody, part only; not given: Variable domains, not shown: another chain or arm of the molecule)
# constant: B1 constant with H140S, T142K
# B30: feline IgG1a S428L (antibody, part only; not given: Variable domains, not shown: another chain or arm of the molecule)
# constant: B1 constant with H140S, S316L
# B31: feline IgG1a T256A (antibody, part only; not given: Variable domains, not shown: another chain or arm of the molecule)
# constant: B1 constant with H140S, T142A
# B32: feline IgG1a S434M (antibody, part only; not given: Variable domains, not shown: another chain or arm of the molecule)
# constant: B1 constant with H140S, S322M
# B33: feline IgG1a S428W (antibody, part only; not given: Variable domains, not shown: another chain or arm of the molecule; small tags and cut ends)
# constant: B1 constant with H140S, S316W
# B34: feline IgG1a S434N (antibody, part only; not given: Variable domains, not shown: another chain or arm of the molecule)
# constant: B1 constant with H140S, S322N
# B35: feline IgG1a S428R (antibody, part only; not given: Variable domains, not shown: another chain or arm of the molecule; small tags and cut ends)
# constant: B1 constant with H140S, S316R
# B36: feline IgG1a S428V (antibody, part only; not given: Variable domains, not shown: another chain or arm of the molecule; small tags and cut ends)
# constant: B1 constant with H140S, S316V
# B37: feline IgG1a S428P (antibody, part only; not given: Variable domains, not shown: another chain or arm of the molecule; small tags and cut ends)
# constant: B1 constant with H140S, S316P
# B38: feline IgG1a S254R (antibody, part only; not given: Variable domains, not shown: another chain or arm of the molecule)
# constant: B1 constant with H140R
# B39: feline IgG1a S428G (antibody, part only; not given: Variable domains, not shown: another chain or arm of the molecule)
# constant: B1 constant with H140S, S316G
# B40: feline IgG1a S428C (antibody, part only; not given: Variable domains, not shown: another chain or arm of the molecule)
# constant: B1 constant with H140S, S316C
# B41: feline IgG1a S254K (antibody, part only; not given: Variable domains, not shown: another chain or arm of the molecule)
# constant: B1 constant with H140K
# B42: feline IgG1a S428Q (antibody, part only; not given: Variable domains, not shown: another chain or arm of the molecule; small tags and cut ends)
# constant: B1 constant with H140S, S316Q
# B43: feline IgG1a S428H (antibody, part only; not given: Variable domains, not shown: another chain or arm of the molecule)
# constant: B1 constant with H140S, S316H
# Biological target: feline FcRn complex (FcRn-α subunit and β-microglobulin), biotin labeled (feline)
# Experiment: SPR, pH 6
row,Kd,Binder
1,1850 nM,B1
2,70.2 nM,B2
3,50.9 nM,B3
4,27.3 nM,B4
5,115 nM,B5
6,154 nM,B6
7,80.3 nM,B7
8,184 nM,B8
9,78.5 nM,B9
10,244 nM,B10
11,87.4 nM,B11
12,25.7 nM,B12
13,8.67 nM,B13
14,42.7 nM,B14
15,101 nM,B15
16,21.8 nM,B16
17,24.7 nM,B17
18,40.8 nM,B18
19,42.9 nM,B19
20,5.64 nM,B20
21,362 nM,B21
22,16.1 nM,B22

row,Kd,Binder
1,119 nM,B23
2,76.9 nM,B24
3,55 nM,B25
4,6.76 nM,B26
5,83.9 nM,B27
6,60.9 nM,B28
7,107 nM,B29
8,81.5 nM,B30
9,40.6 nM,B31
10,2.8 nM,B32
11,36.4 nM,B33
12,6.94 nM,B34
13,68.6 nM,B35
14,19.2 nM,B36
15,18 nM,B37
16,21.5 nM,B38
17,46.3 nM,B39
18,61.4 nM,B40
19,46.5 nM,B41
20,38.3 nM,B42
21,41.6 nM,B43
